Measured values published in patent US20180092966A1 (CSL, published 2018).

How the values were obtained:
[1] = molecular target: T1, VWF-FP K1116C mutant (albumin-fused von Willebrand Factor) (human); experiment: covalent-FVIII ELISA over FVIII activity assay
T1 construct: Stably expressed in CHO cells with furin co-transfected; also called VWF-FP mutant K1116C; Cys residue at VWF aa position 1116; not shown: linker between VWF and albumin, made in analogy to WO 2009/156137

[2] = molecular target: T1, VWF-FP K1116C mutant (albumin-fused von …); experiment: ELISA of co-expression supernatant: anti-VWF capture, 350 mM CaCl2 wash, anti-FVIII detection
Description: (§1) Cell culture supernatant samples (10 ml) from transient transfections were concentrated with Amicon Ultracell-30K (Millipore UFC903024; 3000 g centrifugation). FVIII covalently attached to VWF-FP in culture supernatant (concentrates) was determined by a standard ELISA. Briefly, microplates were incubated with 100 μL per well of the capture antibody (rabbit anti human VWF-IgG, Dako A0082 [Dako, Hamburg, Germany], diluted 1:2000 in buffer A [Sigma C3041, Sigma-Aldrich, Munich, Germany]) overnight at ambient temperature. After washing plates three times with buffer B (Sigma T9039), each well was incubated with 200 μL buffer C (Sigma T6789) for 1.5 hours at ambient temperature (blocking). After another three wash steps with buffer B, serial dilutions of the test sample in buffer B as well as serial dilutions of a control preparation of covalently linked FVIII-VWF-FP, (2.0-0.03 arbitrary U/ml in buffer B (we call these “arbitrary units” as they may not correspond to the standard FVIII units as determined using Standard Human Plasma); volumes per well: 100 μL) were incubated for 1.5 hours at ambient temperature. After three wash steps with buffer B, 200 μL of 350 mM CaCl₂ were added to each well and incubated for 1 hour at ambient temperature. CaCl₂ was removed (without washing) and additional 200 μl were added to each well and incubated further for 1 hour. After three wash steps with buffer B 100 μL of a 1:2 dilution in buffer B of the detection antibody (Detecting Antibody for FVIII:C, peroxidase labelled, Cedarlane CL20035K-D) were added to each well and incubated for 1 hour at ambient temperature. After three wash steps with buffer B, 100 μL of substrate solution (OUVF, Siemens Healthcare Diagnostics) were added per well and incubated for 15 minutes at ambient temperature in the dark. Addition of 100 μL undiluted stop dilution (OSFA, Siemens Healthcare Diagnostics) prepared the samples for reading in a suitable microplate reader at 450 nm wavelength. Concentrations of the test samples were then calculated using the standard curve with the control preparation.

[3] = molecular target: T1, VWF-FP K1116C mutant (albumin-fused von …); experiment: covalent-FVIII ELISA over FVIII antigen ELISA
[4] = molecular target: T2, VWF-FP R768C mutant (albumin-fused von Willebrand Factor) (human); experiment: covalent-FVIII ELISA over FVIII activity assay
T2 construct: Stably expressed in CHO cells with furin co-transfected; also called VWF-FP mutant R768C; Cys residue at VWF aa position 768; not shown: linker between VWF and albumin, made in analogy to WO 2009/156137
T2 sequence (chain, as listed by the source R768C R768C): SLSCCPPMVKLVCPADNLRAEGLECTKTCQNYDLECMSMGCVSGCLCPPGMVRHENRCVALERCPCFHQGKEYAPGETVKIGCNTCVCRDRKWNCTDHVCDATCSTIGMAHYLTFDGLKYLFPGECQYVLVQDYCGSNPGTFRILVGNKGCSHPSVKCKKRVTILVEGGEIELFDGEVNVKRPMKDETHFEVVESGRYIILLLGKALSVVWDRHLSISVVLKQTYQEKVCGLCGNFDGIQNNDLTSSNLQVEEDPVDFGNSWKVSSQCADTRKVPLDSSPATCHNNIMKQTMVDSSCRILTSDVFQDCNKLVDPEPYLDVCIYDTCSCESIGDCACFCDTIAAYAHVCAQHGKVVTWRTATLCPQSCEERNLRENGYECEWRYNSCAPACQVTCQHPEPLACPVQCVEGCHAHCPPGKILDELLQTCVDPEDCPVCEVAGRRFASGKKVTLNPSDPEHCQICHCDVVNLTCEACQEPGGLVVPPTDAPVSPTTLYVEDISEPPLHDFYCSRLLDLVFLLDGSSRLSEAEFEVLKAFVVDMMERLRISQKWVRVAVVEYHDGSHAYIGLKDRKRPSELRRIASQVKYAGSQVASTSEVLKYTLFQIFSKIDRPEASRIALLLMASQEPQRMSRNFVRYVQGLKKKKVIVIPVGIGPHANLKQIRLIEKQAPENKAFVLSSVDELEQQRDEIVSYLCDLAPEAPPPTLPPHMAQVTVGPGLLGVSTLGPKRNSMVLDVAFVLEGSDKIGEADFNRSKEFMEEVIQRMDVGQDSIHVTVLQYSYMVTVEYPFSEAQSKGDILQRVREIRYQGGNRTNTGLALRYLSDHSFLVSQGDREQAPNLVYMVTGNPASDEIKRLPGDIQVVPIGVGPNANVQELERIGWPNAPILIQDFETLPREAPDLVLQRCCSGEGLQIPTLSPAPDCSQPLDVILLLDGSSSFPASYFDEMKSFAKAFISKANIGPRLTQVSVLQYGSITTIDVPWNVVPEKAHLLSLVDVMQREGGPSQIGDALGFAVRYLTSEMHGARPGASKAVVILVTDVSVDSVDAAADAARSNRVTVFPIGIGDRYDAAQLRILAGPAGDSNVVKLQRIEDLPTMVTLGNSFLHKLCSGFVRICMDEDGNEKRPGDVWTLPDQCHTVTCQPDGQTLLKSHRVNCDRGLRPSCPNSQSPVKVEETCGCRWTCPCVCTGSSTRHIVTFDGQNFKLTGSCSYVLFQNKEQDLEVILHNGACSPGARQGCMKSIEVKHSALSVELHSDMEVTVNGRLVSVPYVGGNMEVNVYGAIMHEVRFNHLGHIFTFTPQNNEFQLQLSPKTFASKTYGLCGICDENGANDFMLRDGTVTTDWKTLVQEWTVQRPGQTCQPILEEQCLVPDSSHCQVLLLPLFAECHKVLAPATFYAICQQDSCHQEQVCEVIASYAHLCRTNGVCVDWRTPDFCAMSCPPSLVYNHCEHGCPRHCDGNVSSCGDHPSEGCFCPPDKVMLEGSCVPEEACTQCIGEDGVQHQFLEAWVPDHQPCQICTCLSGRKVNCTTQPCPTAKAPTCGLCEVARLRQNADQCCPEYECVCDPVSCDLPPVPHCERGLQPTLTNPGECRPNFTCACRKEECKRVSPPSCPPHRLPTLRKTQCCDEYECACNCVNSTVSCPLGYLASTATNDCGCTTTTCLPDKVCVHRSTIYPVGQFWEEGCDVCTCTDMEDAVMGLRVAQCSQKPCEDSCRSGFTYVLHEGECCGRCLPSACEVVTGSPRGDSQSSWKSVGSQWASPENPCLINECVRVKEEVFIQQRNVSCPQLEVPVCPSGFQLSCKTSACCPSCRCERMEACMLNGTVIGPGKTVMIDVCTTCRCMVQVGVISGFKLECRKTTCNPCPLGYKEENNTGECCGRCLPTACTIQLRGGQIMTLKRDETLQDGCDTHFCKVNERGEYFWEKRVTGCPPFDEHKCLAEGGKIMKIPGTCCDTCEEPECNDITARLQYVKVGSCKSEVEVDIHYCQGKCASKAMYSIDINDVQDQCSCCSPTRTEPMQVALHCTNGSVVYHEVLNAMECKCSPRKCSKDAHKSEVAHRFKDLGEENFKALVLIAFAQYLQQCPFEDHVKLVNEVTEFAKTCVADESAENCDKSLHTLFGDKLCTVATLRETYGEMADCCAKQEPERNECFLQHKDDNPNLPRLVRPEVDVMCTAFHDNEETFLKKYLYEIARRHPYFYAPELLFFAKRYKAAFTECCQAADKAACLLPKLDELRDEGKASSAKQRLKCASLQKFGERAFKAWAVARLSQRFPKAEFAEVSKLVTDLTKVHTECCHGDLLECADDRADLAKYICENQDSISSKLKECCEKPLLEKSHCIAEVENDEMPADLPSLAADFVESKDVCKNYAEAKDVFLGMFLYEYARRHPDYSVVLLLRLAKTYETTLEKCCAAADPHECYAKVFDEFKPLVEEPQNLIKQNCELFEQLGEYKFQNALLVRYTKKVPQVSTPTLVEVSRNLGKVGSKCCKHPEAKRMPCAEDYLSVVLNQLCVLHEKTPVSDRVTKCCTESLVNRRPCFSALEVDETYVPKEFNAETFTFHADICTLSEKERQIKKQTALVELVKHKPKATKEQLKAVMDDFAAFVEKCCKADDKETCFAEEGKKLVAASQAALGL

[5] = molecular target: T2, VWF-FP R768C mutant (albumin-fused von …); experiment: ELISA of co-expression supernatant: anti-VWF capture, 350 mM CaCl2 wash, anti-FVIII detection
Description: as §1

[6] = molecular target: T2, VWF-FP R768C mutant (albumin-fused von …); experiment: covalent-FVIII ELISA over FVIII antigen ELISA

T1 sequence (chain, as listed by the source K1116C K1116C): as the sequence (chain, as listed by the source R768C R768C) above, with C5R, K353C counted along it

B1: Factor VIII SingleChain F1677C mutant (other)
chain: ATRRYYLGAVELSWDYMQSDLGELPVDARFPPRVPKSFPFNTSVVYKKTLFVEFTDHLFNIAKPRPPWMGLLGPTIQAEVYDTVVITLKNMASHPVSLHAVGVSYWKASEGAEYDDQTSQREKEDDKVFPGGSHTYVWQVLKENGPMASDPLCLTYSYLSHVDLVKDLNSGLIGALLVCREGSLAKEKTQTLHKFILLFAVFDEGKSWHSETKNSLMQDRDAASARAWPKMHTVNGYVNRSLPGLIGCHRKSVYWHVIGMGTTPEVHSIFLEGHTFLVRNHRQASLEISPITFLTAQTLLMDLGQFLLFCHISSHQHDGMEAYVKVDSCPEEPQLRMKNNEEAEDYDDDLTDSEMDVVRFDDDNSPSFIQIRSVAKKHPKTWVHYIAAEEEDWDYAPLVLAPDDRSYKSQYLNNGPQRIGRKYKKVRFMAYTDETFKTREAIQHESGILGPLLYGEVGDTLLIIFKNQASRPYNIYPHGITDVRPLYSRRLPKGVKHLKDFPILPGEIFKYKWTVTVEDGPTKSDPRCLTRYYSSFVNMERDLASGLIGPLLICYKESVDQRGNQIMSDKRNVILFSVFDENRSWYLTENIQRFLPNPAGVQLEDPEFQASNIMHSINGYVFDSLQLSVCLHEVAYWYILSIGAQTDFLSVFFSGYTFKHKMVYEDTLTLFPFSGETVFMSMENPGLWILGCHNSDFRNRGMTALLKVSSCDKNTGDYYEDSYEDISAYLLSKNNAIEPRSFSQNSRHRSTRQKQFNATTIPENTTLQSDQEEIDYDDTISVEMKKEDCDIYDEDENQSPRSFQKKTRHYFIAAVERLWDYGMSSSPHVLRNRAQSGSVPQFKKVVFQEFTDGSFTQPLYRGELNEHLGLLGPYIRAEVEDNIMVTFRNQASRPYSFYSSLISYEEDQRQGAEPRKNFVKPNETKTYFWKVQHHMAPTKDEFDCKAWAYFSDVDLEKDVHSGLIGPLLVCHTNTLNPAHGRQVTVQEFALFFTIFDETKSWYFTENMERNCRAPCNIQMEDPTFKENYRFHAINGYIMDTLPGLVMAQDQRIRWYLLSMGSNENIHSIHFSGHVFTVRKKEEYKMALYNLYPGVFETVEMLPSKAGIWRVECLIGEHLHAGMSTLFLVYSNKCQTPLGMASGHIRDFQITASGQYGQWAPKLARLHYSGSINAWSTKEPFSWIKVDLLAPMIIHGIKTQGARQKFSSLYISQFIIMYSLDGKKWQTYRGNSTGTLMVFFGNVDSSGIKHNIFNPPIIARYIRLHPTHYSIRSTLRMELMGCDLNSCSMPLGMESKAISDAQITASSYFTNMFATWSPSKARLHLQGRSNAWRPQVNNPKEWLQVDFQKTMKVTGVTTQGVKSLLTSMYVKEFLISSSQDGHQWTLFFQNGKVKVFQGNQDSFTPVVNSLDPPLLTRYLRIHPQSWVHQIALRMEVLGCEAQDLY
notes: Single-chain FVIII with partial B-domain deletion; also called FVIII-SC F1677C; Cys residue at FVIII aa position 1677
ratio covalent FVIII/Total FVIII activity [1]: 1.66
covalent FVIII [2]: 1080 amU/ml
ratio covalent FVIII/Total FVIII antigen [3]: 0.79

B2: Factor VIII SingleChain D1681C mutant (other)
chain: ATRRYYLGAVELSWDYMQSDLGELPVDARFPPRVPKSFPFNTSVVYKKTLFVEFTDHLFNIAKPRPPWMGLLGPTIQAEVYDTVVITLKNMASHPVSLHAVGVSYWKASEGAEYDDQTSQREKEDDKVFPGGSHTYVWQVLKENGPMASDPLCLTYSYLSHVDLVKDLNSGLIGALLVCREGSLAKEKTQTLHKFILLFAVFDEGKSWHSETKNSLMQDRDAASARAWPKMHTVNGYVNRSLPGLIGCHRKSVYWHVIGMGTTPEVHSIFLEGHTFLVRNHRQASLEISPITFLTAQTLLMDLGQFLLFCHISSHQHDGMEAYVKVDSCPEEPQLRMKNNEEAEDYDDDLTDSEMDVVRFDDDNSPSFIQIRSVAKKHPKTWVHYIAAEEEDWDYAPLVLAPDDRSYKSQYLNNGPQRIGRKYKKVRFMAYTDETFKTREAIQHESGILGPLLYGEVGDTLLIIFKNQASRPYNIYPHGITDVRPLYSRRLPKGVKHLKDFPILPGEIFKYKWTVTVEDGPTKSDPRCLTRYYSSFVNMERDLASGLIGPLLICYKESVDQRGNQIMSDKRNVILFSVFDENRSWYLTENIQRFLPNPAGVQLEDPEFQASNIMHSINGYVFDSLQLSVCLHEVAYWYILSIGAQTDFLSVFFSGYTFKHKMVYEDTLTLFPFSGETVFMSMENPGLWILGCHNSDFRNRGMTALLKVSSCDKNTGDYYEDSYEDISAYLLSKNNAIEPRSFSQNSRHRSTRQKQFNATTIPENTTLQSDQEEIDYDDTISVEMKKEDFDIYCEDENQSPRSFQKKTRHYFIAAVERLWDYGMSSSPHVLRNRAQSGSVPQFKKVVFQEFTDGSFTQPLYRGELNEHLGLLGPYIRAEVEDNIMVTFRNQASRPYSFYSSLISYEEDQRQGAEPRKNFVKPNETKTYFWKVQHHMAPTKDEFDCKAWAYFSDVDLEKDVHSGLIGPLLVCHTNTLNPAHGRQVTVQEFALFFTIFDETKSWYFTENMERNCRAPCNIQMEDPTFKENYRFHAINGYIMDTLPGLVMAQDQRIRWYLLSMGSNENIHSIHFSGHVFTVRKKEEYKMALYNLYPGVFETVEMLPSKAGIWRVECLIGEHLHAGMSTLFLVYSNKCQTPLGMASGHIRDFQITASGQYGQWAPKLARLHYSGSINAWSTKEPFSWIKVDLLAPMIIHGIKTQGARQKFSSLYISQFIIMYSLDGKKWQTYRGNSTGTLMVFFGNVDSSGIKHNIFNPPIIARYIRLHPTHYSIRSTLRMELMGCDLNSCSMPLGMESKAISDAQITASSYFTNMFATWSPSKARLHLQGRSNAWRPQVNNPKEWLQVDFQKTMKVTGVTTQGVKSLLTSMYVKEFLISSSQDGHQWTLFFQNGKVKVFQGNQDSFTPVVNSLDPPLLTRYLRIHPQSWVHQIALRMEVLGCEAQDLY
notes: Single-chain FVIII with partial B-domain deletion; also called FVIII-SC D1681C; Cys residue at FVIII aa position 1681
ratio covalent FVIII/Total FVIII activity [1]: 0.6
ratio covalent FVIII/Total FVIII activity [4]: 1.5
covalent FVIII [2]: 1440 amU/ml
covalent FVIII [5]: 87 amU/ml
ratio covalent FVIII/Total FVIII antigen [3]: 2.23
ratio covalent FVIII/Total FVIII antigen [6]: 1.55

B3: Factor VIII SingleChain D1683C mutant (other)
chain: ATRRYYLGAVELSWDYMQSDLGELPVDARFPPRVPKSFPFNTSVVYKKTLFVEFTDHLFNIAKPRPPWMGLLGPTIQAEVYDTVVITLKNMASHPVSLHAVGVSYWKASEGAEYDDQTSQREKEDDKVFPGGSHTYVWQVLKENGPMASDPLCLTYSYLSHVDLVKDLNSGLIGALLVCREGSLAKEKTQTLHKFILLFAVFDEGKSWHSETKNSLMQDRDAASARAWPKMHTVNGYVNRSLPGLIGCHRKSVYWHVIGMGTTPEVHSIFLEGHTFLVRNHRQASLEISPITFLTAQTLLMDLGQFLLFCHISSHQHDGMEAYVKVDSCPEEPQLRMKNNEEAEDYDDDLTDSEMDVVRFDDDNSPSFIQIRSVAKKHPKTWVHYIAAEEEDWDYAPLVLAPDDRSYKSQYLNNGPQRIGRKYKKVRFMAYTDETFKTREAIQHESGILGPLLYGEVGDTLLIIFKNQASRPYNIYPHGITDVRPLYSRRLPKGVKHLKDFPILPGEIFKYKWTVTVEDGPTKSDPRCLTRYYSSFVNMERDLASGLIGPLLICYKESVDQRGNQIMSDKRNVILFSVFDENRSWYLTENIQRFLPNPAGVQLEDPEFQASNIMHSINGYVFDSLQLSVCLHEVAYWYILSIGAQTDFLSVFFSGYTFKHKMVYEDTLTLFPFSGETVFMSMENPGLWILGCHNSDFRNRGMTALLKVSSCDKNTGDYYEDSYEDISAYLLSKNNAIEPRSFSQNSRHRSTRQKQFNATTIPENTTLQSDQEEIDYDDTISVEMKKEDFDIYDECENQSPRSFQKKTRHYFIAAVERLWDYGMSSSPHVLRNRAQSGSVPQFKKVVFQEFTDGSFTQPLYRGELNEHLGLLGPYIRAEVEDNIMVTFRNQASRPYSFYSSLISYEEDQRQGAEPRKNFVKPNETKTYFWKVQHHMAPTKDEFDCKAWAYFSDVDLEKDVHSGLIGPLLVCHTNTLNPAHGRQVTVQEFALFFTIFDETKSWYFTENMERNCRAPCNIQMEDPTFKENYRFHAINGYIMDTLPGLVMAQDQRIRWYLLSMGSNENIHSIHFSGHVFTVRKKEEYKMALYNLYPGVFETVEMLPSKAGIWRVECLIGEHLHAGMSTLFLVYSNKCQTPLGMASGHIRDFQITASGQYGQWAPKLARLHYSGSINAWSTKEPFSWIKVDLLAPMIIHGIKTQGARQKFSSLYISQFIIMYSLDGKKWQTYRGNSTGTLMVFFGNVDSSGIKHNIFNPPIIARYIRLHPTHYSIRSTLRMELMGCDLNSCSMPLGMESKAISDAQITASSYFTNMFATWSPSKARLHLQGRSNAWRPQVNNPKEWLQVDFQKTMKVTGVTTQGVKSLLTSMYVKEFLISSSQDGHQWTLFFQNGKVKVFQGNQDSFTPVVNSLDPPLLTRYLRIHPQSWVHQIALRMEVLGCEAQDLY
notes: Single-chain FVIII with partial B-domain deletion; also called FVIII-SC D1683C; Cys residue at FVIII aa position 1683
ratio covalent FVIII/Total FVIII activity [1]: 0.42
ratio covalent FVIII/Total FVIII activity [4]: 4.07
covalent FVIII [2]: 1350 amU/ml
covalent FVIII [5]: 2210 amU/ml
ratio covalent FVIII/Total FVIII antigen [3]: 1.76
ratio covalent FVIII/Total FVIII antigen [6]: 3.07
